Experimental data reported in patent US20120196307.

T1: synaptotagmin-1, intact 65 kDa protein (rat), P21707
T1 chain: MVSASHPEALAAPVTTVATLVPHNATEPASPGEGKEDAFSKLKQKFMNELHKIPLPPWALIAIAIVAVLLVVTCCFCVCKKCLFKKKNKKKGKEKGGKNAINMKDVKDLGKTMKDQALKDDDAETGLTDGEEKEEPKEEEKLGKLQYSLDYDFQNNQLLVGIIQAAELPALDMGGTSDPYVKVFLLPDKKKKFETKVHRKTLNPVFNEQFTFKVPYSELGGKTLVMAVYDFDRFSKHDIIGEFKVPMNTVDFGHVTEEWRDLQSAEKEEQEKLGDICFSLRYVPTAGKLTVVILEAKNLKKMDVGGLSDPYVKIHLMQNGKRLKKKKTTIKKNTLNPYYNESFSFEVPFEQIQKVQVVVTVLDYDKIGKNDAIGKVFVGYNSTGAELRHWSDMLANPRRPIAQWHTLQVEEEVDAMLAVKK

B1: recombinant human caspase-3 (Chemicon) (protein)
chain: SGISLDNSYKMDYPEMGLCIIINNKNFHKSTGMTSRSGTDVDAANLRETFRNLKYEVRNKNDLTREEIVELMRDVSKEDHSKRSSFVCVLLSHGEEGIIFGTNGPVDLKKITNFFRGDRCRSLTGKPKLFIIQACRGTELDCGIETDSGVDDDMACHKIPVEADFLYAYSTAPGYYSWRNSKDGSWFIQSLCAMLKQYADKLEFMHILTRVNRKVATEFESFSFDATFHAKKQIPCIVSMLTKELYFYH
B2: human erythrocyte calpain-1 (protein)
chain: SEEIITPVYCTGVSAQVQKQRARELGLGRHENAIKYLGQDYEQLRVRCLQSGTLFRDEAFPPVPQSLGYKDLGPNSSKTYGIKWKRPTELLSNPQFIVDGATRTDICQGALGDCWLLAAIASLTLNDTLLHRVVPHGQSFQNGYAGIFHFQLWQFGEWVDVVVDDLLPIKDGKLVFVHSAEGNEFWSALLEKAYAKVNGSYEALSGGSTSEGFEDFTGGVTEWYELRKAPSDLYQIILKALERGSLLGCSIDISSVLDMEAITFKKLVKGHAYSVTGAKQVNYRGQVVSLIRMRNPWGEVEWTGAWSDSSSEWNNVDPYERDQLRVKMEDGEFWMSFRDFMREFTRLEICNLTPDALKSRTIRKWNTTLYEGTWRRGSTAGGCRNYPATFWVNPQFKIRLDETDDPDDYGDRESGCSFVLALMQKHRRRERRFGRDMETIGFAVYEVPPELVGQPAVHLKRDFFLANASRARSEQFINLREVSTRFRLPPGEYVVVPSTFEPNKEGDFVLRFFSEKSAGTVELDDQIQANLPDEQVLSEEEIDENFKALFRQLAGEDMEISVKELRTILNRIISKHKDLRTKGFSLESCRSMVNLMDRDGNGKLGLVEFNILWNRIRNYLSIFRKFDLDKSGSMSAYEMRMAIESAGFKLNKKLYELIITRYSEPDLAVDFDNFVCCLVRLETMFRFFKTLDTDLDGVVTFDLFKWLQLTMFA
B3: rat recombinant calpain-2 (Calbiochem) (protein)
chain: MAGIAMKLAKDREAAEGLGSHERAIKYLNQDYETLRNECLEAGALFQDPSFPALPSSLGFKELGPYSSKTRGIEWKRPTEICADPQFIIGGATRTDICQGALGDCWLLAAIASLTLNEEILARVVPLDQSFQENYAGIFHFQFWQYGEWVEVVVDDRLPTKDGELLFVHSAEGSEFWSALLEKAYAKINGCYEALSGGATTEGFEDFTGGIAEWYELRKPPPNLFKIIQKALEKGSLLGCSIDITSAADSEAVTYQKLVKGHAYSVTGAEEVESSGSLQKLIRIRNPWGQVEWTGKWNDNCPSWNTVDPEVRANLTERQEDGEFWMSFSDFLRHYSRLEICNLTPDTLTCDSYKKWKLTKMDGNWRRGSTAGGCRNYPNTFWMNPQYLIKLEEEDEDDEDGERGCTFLVGLIQKHRRRQRKMGEDMHTIGFGIYEVPEELTGQTNIHLSKNFFLTTRARERSDTFINLREVLNRFKLPPGEYVLVPSTFEPHKNGDFCIRVFSEKKADYQTVDDEIEANIEEIEANEEDIGDGFRRLFAQLAGEDAEISAFELQTILRRVLAKREDIKSDGFSIETCKIMVDMLDEDGSGKLGLKEFYILWTKIQKYQKIYREIDVDRSGTMNSYEMRKALEEAGFKLPCQLHQVIVARFADDELIIDFDNFVRCLVRLEILFKIFKQLDPENTGTIQLDLISWLSFSVL
B4: human calpain-2 (Calbiochem, Cat#208715) (protein)
chain: AGIAAKLAKDREAAEGLGSHDRAIKYLNQDYEALRNECLEAGTLFQDPSFPAIPSALGFKELGPYSSKTRGIEWKRPTEICADPQFIIGGATRTDICQGALGDCWLLAAIASLTLNEEILARVVPLNQSFQENYAGIFHFQFWQYGEWVEVVVDDRLPTKDGELLFVHSAEGSEFWSALLEKAYAKINGCYEALSGGATTEGFEDFTGGIAEWYELKKPPPNLFKIIQKALQKGSLLGCSIDITSAADSEAITFQKLVKGHAYSVTGAEEVESNGSLQKLIRIRNPWGEVEWTGRWNDNCPSWNTIDPEERERLTRRHEDGEFWMSFSDFLRHYSRLEICNLTPDTLTSDTYKKWKLTKMDGNWRRGSTAGGCRNYPNTFWMNPQYLIKLEEEDEDEEDGESGCTFLVGLIQKHRRRQRKMGEDMHTIGFGIYEVPEELSGQTNIHLSKNFFLTNRARERSDTFINLREVLNRFKLPPGEYILVPSTFEPNKDGDFCIRVFSEKKADYQAVDDEIEANLEEFDISEDDIDDGFRRLFAQLAGEDAEISAFELQTILRRVLAKRQDIKSDGFSIETCKIMVDMLDSDGSGKLGLKEFYILWTKIQKYQKIYREIDVDRSGTMNSYEMRKALEEAGFKMPCQLHQVIVARFADDQLIIDFDNFVRCLVRLETLFKIFKQLDPENTGTIELDLISWLCFSVL

Experiments:
[1] = molecular target: collapsin response mediator protein-2, intact (rat), P47942
[2] = molecular target: T1, synaptotagmin-1, intact 65 kDa protein …
[3] = molecular target: CRMP-2 C-terminal 53-mer (500-552) synthetic peptide, Q16555

Protein	in vitro protease digestion of naive brain lysate, Western blot [1]	in vitro protease digestion of lysate, Western blot [2]	in vitro digestion of the synthetic peptide, Coomassie gel and N-terminal microsequencing [3]
B1	caspase-3 treatment did not produce the 55 kDa BDP	Syt1 was resistant to caspase-3 in the same samples	–
B2	–	Digestion with calpain-1 showed identical results (data not shown).	–
B3	–	–	Purified CRMP-2 C-terminal 53-mer (500-552) peptide was synthesized and digested by rat calpain-2.
B4	–	Syt1-blot also showed a calpain-concentration-dependent reduction of intact Syt1. Calpain treatment also produced a BDP identical to the 33 Syt1-fragment produced following TBI.	–
